Assay [1] deals with Gal4-DBD–Vnd, construct A1 (amino acids 3–717) (Drosophila) (UniProt P22808). The experiment in a line: two-hybrid.
Assay [2] deals with Gal4-DBD–Vnd, construct A2 (amino acids 3–613) (Drosophila) (UniProt P22808). The experiment in a line: two-hybrid.

For “VP16–Dichaete (pACT-Dichaete) (natural protein)”, the fold reduction of repression (two-hybrid reporter) in assay [1] came out at 6 fold. The substance also had a fold alleviation of repression (two-hybrid reporter) in assay [2] of 3 to 3.5 fold.
